The source of these data is paper PMC11172311, “Structural and Interactional Analysis of the Flavonoid Pathway Proteins: Chalcone Synthase, Chalcone Isomerase and Chalcone Isomerase-like Protein” (International Journal of Molecular Sciences, 2024).

The target in experiment [1] is Panicum virgatum chalcone synthase (PvCHS) (Panicum virgatum). Briefly: ITC; PvCHS in the well, PvCHIL in the syringe; 22 injections of 2 µL; PBS; no small molecule added. In general terms: In ITC the heat of successive injections is recorded.
The target is the same in experiment [2]. The description is as above. This is another data set of the same source.
For experiment [3] the target is unchanged. As to the kind of experiment: ITC; PvCHS in the well, PvCHIL in the syringe; 22 injections of 2 µL; PBS; with naringenin chalcone at 5x molar excess.
Experiment [4] has the same target.
Experiment [5] has the same target. As to the kind of experiment: ITC; PvCHS in the well, PvCHIL in the syringe; 22 injections of 2 µL; PBS; with naringenin at 5x molar excess.
Experiment [6] deals with Panicum virgatum chalcone isomerase-like protein (PvCHIL) (Panicum virgatum). Briefly: FRET or BRET; PvCHIL labelled with ATTO 488 (donor) held at 1 µM, PvCHS labelled with ATTO 550 (acceptor) gradually increased; PBS pH 7.4; spectra in triplicate. On the technique in general: In BRET a luciferase serves as donor, and the signal depends on an acceptor being close.
Experiment [7] concerns the target Panicum virgatum chalcone isomerase (PvCHI) (Panicum virgatum). As to the kind of experiment: FRET or BRET; PvCHI labelled with ATTO 488 (donor) held at 1 µM, PvCHS labelled with ATTO 647N (acceptor) gradually increased (0.5 to 10 µM); PBS pH 7.4; spectra in triplicate.
Experiment [8] deals with Panicum virgatum chalcone synthase (PvCHS) (Panicum virgatum). Briefly: crystal structure; PvCHS co-crystallised with naringenin and CoA, space group P1, four molecules in the unit cell; hanging drop, 277 K; data at 100 K.
The target is the same in experiment [9]. This is another data set of the same source.

In general, Kd refers to the equilibrium constant for the complex coming apart. Higher therefore signals weaker binding. Consider “Panicum virgatum chalcone isomerase-like protein (PvCHIL) (natural protein)”, for which the Kd worked out at 76.3 µM in experiment [1], 170 µM in [3] and 7.46 µM in experiment [5]. Moreover, the dH in experiment [1] was 31.8 kcal/mol; in [2], 31.9 kcal/mol; in experiment [3], 36.4 kcal/mol; in experiment [5], 5.34 kcal/mol. Moreover, the Vmax of PvCHS for p-coumaroyl-CoA in the presence of PvCHIL (5:1 molar ratio) against PvCHS alone in experiment [4] was found to be 7.7 fold.

A word on the stoichiometry N: it is the number of molecules, sites or subunits per partner or assembly. In the case of “Panicum virgatum chalcone synthase (PvCHS) (enzyme)”, the results for the Kd in experiment [6] and in experiment [7] were 26.5 µM and 0.637 µM, respectively. In experiment [8], this substance displayed a stoichiometry N of 2.

“Panicum virgatum chalcone isomerase (PvCHI) (enzyme)”: in experiment [9], the Vmax of PvCHS for p-coumaroyl-CoA (naringenin plus naringenin chalcone formed) in the presence of PvCHI against PvCHS alone came out at 24 fold; the Vmax of PvCHS for p-coumaroyl-CoA in the three-protein system (PvCHS, PvCHI and PvCHIL) against PvCHS alone; PvCHIL does not compete with PvCHI turned out to be 437 fold.
